Reference: patent publication US20180118848A1 (Regeneron, published 2018)
Numbering of substitutions follows the chain as printed.

Key:
human MUC16 (mucin 16) [1] = molecular target: human MUC16 (mucin 16) (human); test: cell-based or functional assay
human MUC16 (mucin 16) [2] = molecular target: T1, human MUC16 (mucin 16) (human); test: FACS binding titration on OVCAR3-Luc (MUC16+) cells
T1 construct: Endogenously expressed on human tumour cell lines; also called hMUC16
Experimental: (§1) A. Briefly, flow cytometric analysis (i.e. fluorescence-activated cell sorting, or FACS) was utilized to determine binding of bispecific antibodies to Jurkat cells or cells expressing human MUC16, followed by detection with a phycoerythrin (PE)-labeled or APC-labeled anti-human IgG antibody. […] After incubation, the cells were washed twice with cold PBS containing 1% filtered FBS and a PE-conjugated or APC-conjugated anti-human secondary antibody was added to the cells and incubated for an additional 30 minutes. Wells containing no antibody or secondary only were also used as controls. After incubation, cells were washed, re-suspended in 200 μL cold PBS containing 1% filtered FBS and analyzed by flow cytometry on a BD FACS Canto II.
B. In separate experiments with analogous conditions to that described above, flow cytometric analysis (or FACS) was utilized to determine binding of select bispecific antibodies to Jurkat cells, PEO-1, OVCAR3-Luc and cynomolgus T cells. […]
For FACS analysis, cells were gated by forward scatter height vs. forward scatter area for single events selection, followed by side and forward scatters. The EC50 for cell binding titration was determined using PRISM™ software (GraphPad Software, Inc., La Jolla, Calif.). Values were calculated using 4-parameter non-linear regression analysis. […]

human MUC16 (mucin 16) [3] = molecular target: T1, human MUC16 (mucin 16); test: FACS binding titration on PEO-1 (MUC16+) cells
Experimental: as §1
B. In separate experiments with analogous conditions to that described above, flow cytometric analysis (or FACS) was utilized to determine binding of select bispecific antibodies to Jurkat cells, PEO-1, OVCAR3-Luc and cynomolgus T cells. For the titration analysis, serial dilution of selected MUC16×CD3 bispecific antibodies, a first isotype control antibody (a human chimeric IgG4 antibody that binds an irrelevant human antigen with no cross-reactivity to human or cynomolgus CD3) and a second isotype control antibody (a human chimeric IgG4 antibody that binds an irrelevant human antigen with no cross-reactivity to human MUC16), ranging from 66.6 nM to 0.001 nM.
For FACS analysis, cells were gated by forward scatter height vs. forward scatter area for single events selection, followed by side and forward scatters. The EC50 for cell binding titration was determined using PRISM™ software (GraphPad Software, Inc., La Jolla, Calif.). Values were calculated using 4-parameter non-linear regression analysis. (Liu, J., et al. 2005, Biotechnol Letters 27:1821-1827).

human MUC16 (mucin 16) [4] = molecular target: T1, human MUC16 (mucin 16); test: cell-based or functional assay; remark: listed apart in the source
human MUC16 (mucin 16) [5] = molecular target: T1, human MUC16 (mucin 16); test: cell-based or functional assay; remark: listed apart in the source
human MUC16 (mucin 16) [6] = molecular target: T1, human MUC16 (mucin 16); test: FACS binding titration on OVCAR3 (MUC16+) cells
human MUC16 (mucin 16) [7] = molecular target: T1, human MUC16 (mucin 16); test: MSD ECL cell binding, RLU ratio OVCAR-3 vs SK-OV-3, 1.9 nM Ab
Experimental: (§2) The ability of anti-MUC16 antibodies to bind specifically to endogenously expressing MUC16 on the human ovarian carcinoma cell line (OVCAR-3) was evaluated via an electrochemiluminescence based detection assay (Meso Scale Discovery (MSD), Rockville, Md.). […] Detached cells were then washed once in 1×PBS supplemented with Ca²⁺/Mg²⁺ and counted (Cellometer Auto T4 cell counter, Nexcelom Bioscience, Lawrence, Mass.). Approximately 1.0×10⁴ cells were plated in MULTI-ARRAY 96-well carbon electrode plates (MSD) and incubated for 1 h at 37° C. […] Next, serial dilutions of anti-MUC16 or control antibodies (0.85 pM-50 nM) and no-antibody buffer controls were added to the plate-bound cells and incubated for 1 h at room temperature (RT). Plates were then washed to remove the unbound antibodies using an AquaMax2000 plate washer (MDS Analytical Technologies, Sunnyvale, Calif.). Plate-bound antibodies were detected with a SULFO-TAG™-conjugated anti-human kappa light chain antibody (Regeneron) or a SULFO-TAG™-conjugated anti-mouse IgG antibody (Jackson Immunoresearch, West Grove, Pa.) for 1 h at RT. Post-wash, plates were developed with Read Buffer (MSD) according to manufacturer's protocol and luminescent signals were recorded with a SECTOR Imager 6000 (MSD) instrument.
(§3) Luminescence intensity, measured in relative light units (RLU), for the two cell lines was recorded to indicate the binding intensity of each antibody.

human MUC16 (mucin 16) [8] = molecular target: T1, human MUC16 (mucin 16); test: MSD ECL cell binding, RLU ratio OVCAR-3 vs SK-OV-3, 16.7 nM Ab; NS = ratio <2.5-fold
Experimental: as §2, with “Plates were then washed to remove the unbound antibodies using an AquaMax2000 plate washer (MDS Analytical Technologies, Sunnyvale, Calif.).” left out
as §3

B1: BSMUC16/CD3-005 (bispecific antibody, V domains shown)
VH 1: QVQLVESGGGLVKPGGSLRLSCAASGFTFSNYYMSWVRQAPGKGLEWISYISGRGSTIFYADSVKGRITISRDNAKNSLFLQMNSLRAEDTAVYFCVKDRGGYSPYWGQGTLVTVSS
VH 2: EVQLVESGGGLVQPGRSLRLSCAASGFTFDDYSMHWVRQAPGKGLEWVSGISWNSGSIGYADSVKGRFTISRDNAKNSLYLQMNSLRAEDTALYYCAKYGSGYGKFYYYGMDVWGQGTTVTVSS
VL: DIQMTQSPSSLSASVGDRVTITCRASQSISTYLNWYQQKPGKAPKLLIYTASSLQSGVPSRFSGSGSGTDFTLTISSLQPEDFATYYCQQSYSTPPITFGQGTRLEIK
notes: Anti-MUC16 HCVR of H1H8767P, anti-CD3 HCVR CD3-VH-G20, common light chain of H1H8767P; also called anti-MUC16xCD3 bispecific antibody with CD3-VH-G20 arm; REGN4019
PEO-1 cell depletion EC50 (human MUC16 (mucin 16) [1]): 0.0774 nM | EC50 (human MUC16 (mucin 16) [2]): 1.47 nM | EC50 (human MUC16 (mucin 16) [3]): 2.63 nM | OVCAR3-Luc cell depletion EC50 (human MUC16 (mucin 16) [4]): 0.0516 nM

B2: BSMUC16/CD3-001 (bispecific antibody, V domains shown)
VH 1: B1 VH 1
VH 2: B1 VH 2 with I58K, Y108H, M111L
VL: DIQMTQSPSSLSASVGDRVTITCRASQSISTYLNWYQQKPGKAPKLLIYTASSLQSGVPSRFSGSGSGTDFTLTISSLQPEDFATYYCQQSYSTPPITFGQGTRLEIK
notes: Anti-MUC16 HCVR of H1H8767P, anti-CD3 HCVR CD3-VH-G, common light chain of H1H8767P; also called anti-MUC16xCD3 bispecific antibody with CD3-VH-G arm
PEO-1 cell depletion EC50 (human MUC16 (mucin 16) [1]): 0.0256 nM | OVCAR3 cell depletion EC50 (human MUC16 (mucin 16) [5]): 0.0224 nM | EC50 (human MUC16 (mucin 16) [6]): 1.2 nM | EC50 (human MUC16 (mucin 16) [2]): 1.32 nM | EC50 (human MUC16 (mucin 16) [3]): 3.02 nM | OVCAR3-Luc cell depletion EC50 (human MUC16 (mucin 16) [4]): 0.0154 nM

B3: H1H8767P (antibody, human IgG1, V domains shown)
VH: B1 VH 1
VL: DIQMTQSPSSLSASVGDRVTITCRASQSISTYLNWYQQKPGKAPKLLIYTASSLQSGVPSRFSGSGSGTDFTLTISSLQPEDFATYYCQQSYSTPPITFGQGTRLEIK
notes: Human IgG1
Ratio anti-MUC16 Binding OVCAR-3/SK-OV-3 (human MUC16 (mucin 16) [7]): 4 ratio | Ratio anti-MUC16 Binding OVCAR-3/SK-OV-3 (human MUC16 (mucin 16) [8]): < 2.5 ratio

B4: H1H8808P (antibody, human IgG1, V domains shown)
VH: QVQLVESGGGVVQPGRSLRLSCVASGFTFSNYGIHWVRQAPGKGLEWVAVISDDGSFKFYADSVKGRFTISRDNSKNTLYLQMNSLRVEDSAVYHCAKWQHNWNDGGFDYWGQGTLVTVSS
VL: EIVLTQSPDTLSLSPGERATLSCRASQSLSSNYLAWYRQKPGQAPRLLIYGISSRATGIPDRFSGSGSGTDFTLTISRLEPEDFAVYYCQQYGSSPWTFGQGTKVEIK
notes: Human IgG1
Ratio anti-MUC16 Binding OVCAR-3/SK-OV-3 (human MUC16 (mucin 16) [7]): 4 ratio | Ratio anti-MUC16 Binding OVCAR-3/SK-OV-3 (human MUC16 (mucin 16) [8]): < 2.5 ratio
